Our source for the Kd values is paper PMC9468479.

The target of this assay is SARS-CoV-2 Omicron spike protein (SARS-CoV-2 B.1.1529 spike protein) (SARS-CoV-2 (Omicron)) (UniProt P0DTC2). The assay can be described thus: SPR. (In general: In SPR one partner is held on a chip, and binding of the other changes the refractive index at the surface.)

By Kd is commonly meant the concentration at which binding is half-saturated. Higher therefore signals a looser complex. “Urtica dioica agglutinin (UDA) (natural protein)” gave a Kd of 11 nM.
